We go through one molecule from paper PMC6019379, “RecA-like domain 2 of DNA-dependent ATPase A domain, a SWI2/SNF2 protein, mediates conformational integrity and ATP hydrolysis” (Bioscience Reports, 2018).

The target in the data set is T1, ADAAD R595H (Bos taurus (bovine), UniProt Q9TTA5 221-940, R815H).
T1 sequence: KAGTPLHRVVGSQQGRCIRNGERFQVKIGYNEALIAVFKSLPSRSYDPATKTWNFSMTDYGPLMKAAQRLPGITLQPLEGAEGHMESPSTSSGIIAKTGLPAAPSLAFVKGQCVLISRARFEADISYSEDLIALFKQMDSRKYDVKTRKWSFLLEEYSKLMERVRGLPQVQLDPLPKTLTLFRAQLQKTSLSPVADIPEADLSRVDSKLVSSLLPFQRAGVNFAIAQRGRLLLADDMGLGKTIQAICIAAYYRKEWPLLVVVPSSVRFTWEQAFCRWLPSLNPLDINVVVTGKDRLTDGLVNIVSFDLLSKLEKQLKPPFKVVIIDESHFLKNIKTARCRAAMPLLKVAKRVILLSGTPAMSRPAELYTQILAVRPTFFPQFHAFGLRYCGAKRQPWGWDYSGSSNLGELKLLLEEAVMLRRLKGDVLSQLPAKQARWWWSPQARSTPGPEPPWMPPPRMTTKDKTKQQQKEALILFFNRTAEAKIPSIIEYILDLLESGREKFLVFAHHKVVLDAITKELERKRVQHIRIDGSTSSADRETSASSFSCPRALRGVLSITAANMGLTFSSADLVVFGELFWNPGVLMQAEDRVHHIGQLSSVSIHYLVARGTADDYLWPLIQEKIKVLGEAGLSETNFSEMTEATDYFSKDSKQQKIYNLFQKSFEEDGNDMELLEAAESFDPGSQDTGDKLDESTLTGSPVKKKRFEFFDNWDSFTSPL
Nature of the data set: intrinsic tryptophan fluorescence titration; no ATP; Fluorescence titration (ex 295 nm, em 340 nm), one-site saturation fit; buffer, salt, pH and temperature not given in the material. Wild-type ADAAD Kd values are cited from ref 24 and not listed. The conditions noted are these: protein: recombinant; tags: His (Ni-NTA, pET-14b); hairpin.

A word on the Kd: it is the concentration at which binding is half-saturated.

Take GCGCAATTGCGCTCGACGATTTTTTAGCGCAATTGCGC (structured_DNA) [slDNA (stem-loop DNA)]: the Kd stood at 24.3 ± 6.1 nM.
